Source: patent US20210388087A1 (Chugai, published 2021)
Changes are numbered by the printed parent chain.

B1: GLS3000 S27eV (antibody, name in Kabat numbering, V domains shown)
VH: QVQLVESGGGVVQPGRSLRLSCAASGFTFSNAWMHWVRQAPGKGLEWVAQIKAKSNNYATYYAESVKGRFTISRDDSKNSLYLQMNSLKTEDTAVYYCRYVHYGAYYGVDAWGQGTTVTVSS
VL: DIVMTQSPLSLPVTPGEPASISCRSSQSLVHVNRNTYLHWYQQKPGQAPRLLIYKVSNRFSGVPDRFSGSGSGTDFTLKISRVEAEDVGVYYCGQGTQVPYTFGQGTKLEIK
notes: one-arm IgG as m2
B2: GLS3000 S27eW (antibody, name in Kabat numbering, V domains shown)
VH: B1 VH
VL: B1 VL with V32W
notes: one-arm IgG as m2
B3: GLS3000 S27eY (antibody, name in Kabat numbering, V domains shown)
VH: B1 VH
VL: B1 VL with V32Y
notes: one-arm IgG as m2
B4: GLS3000 S52A (antibody, name in Kabat numbering, V domains shown)
VH: B1 VH
VL: B1 VL with V32S, S57A
notes: one-arm IgG as m2
B5: GLS3000 S52D (antibody, name in Kabat numbering, V domains shown)
VH: B1 VH
VL: B1 VL with V32S, S57D
notes: one-arm IgG as m2
B6: GLS3000 S52P (antibody, name in Kabat numbering, V domains shown)
VH: B1 VH
VL: B1 VL with V32S, S57P
notes: one-arm IgG as m2
B7: GLS3000 S52Q (antibody, name in Kabat numbering, V domains shown)
VH: B1 VH
VL: B1 VL with V32S, S57Q
notes: one-arm IgG as m2
B8: GLS3000 S52Y (antibody, name in Kabat numbering, V domains shown)
VH: B1 VH
VL: B1 VL with V32S, S57Y
notes: one-arm IgG as m2
B9: GLS3000 S56A (antibody, name in Kabat numbering, V domains shown)
VH: B1 VH
VL: B1 VL with V32S, S61A
notes: one-arm IgG as m2
B10: GLS3000 S56D (antibody, name in Kabat numbering, V domains shown)
VH: B1 VH
VL: B1 VL with V32S, S61D
notes: one-arm IgG as m2
B11: GLS3000 S56E (antibody, name in Kabat numbering, V domains shown)
VH: B1 VH
VL: B1 VL with V32S, S61E
notes: one-arm IgG as m2
B12: GLS3000 S56F (antibody, name in Kabat numbering, V domains shown)
VH: B1 VH
VL: B1 VL with V32S, S61F
notes: one-arm IgG as m2
B13: GLS3000 S56G (antibody, name in Kabat numbering, V domains shown)
VH: B1 VH
VL: B1 VL with V32S, S61G
notes: one-arm IgG as m2
B14: GLS3000 S56H (antibody, name in Kabat numbering, V domains shown)
VH: B1 VH
VL: B1 VL with V32S, S61H
notes: one-arm IgG as m2
B15: GLS3000 S56I (antibody, name in Kabat numbering, V domains shown)
VH: B1 VH
VL: B1 VL with V32S, S61I
notes: one-arm IgG as m2
B16: GLS3000 S56K (antibody, name in Kabat numbering, V domains shown)
VH: B1 VH
VL: B1 VL with V32S, S61K
notes: one-arm IgG as m2
B17: GLS3000 S56L (antibody, name in Kabat numbering, V domains shown)
VH: B1 VH
VL: B1 VL with V32S, S61L
notes: one-arm IgG as m2
B18: GLS3000 S56M (antibody, name in Kabat numbering, V domains shown)
VH: B1 VH
VL: B1 VL with V32S, S61M
notes: one-arm IgG as m2
B19: GLS3000 S56N (antibody, name in Kabat numbering, V domains shown)
VH: B1 VH
VL: B1 VL with V32S, S61N
notes: one-arm IgG as m2
B20: GLS3000 S56P (antibody, name in Kabat numbering, V domains shown)
VH: B1 VH
VL: B1 VL with V32S, S61P
notes: one-arm IgG as m2
B21: GLS3000 S56Q (antibody, name in Kabat numbering, V domains shown)
VH: B1 VH
VL: B1 VL with V32S, S61Q
notes: one-arm IgG as m2
B22: GLS3000 S56R (antibody, name in Kabat numbering, V domains shown)
VH: B1 VH
VL: B1 VL with V32S, S61R
notes: one-arm IgG as m2
B23: GLS3000 S56T (antibody, name in Kabat numbering, V domains shown)
VH: B1 VH
VL: B1 VL with V32S, S61T
notes: one-arm IgG as m2
B24: GLS3000 S56V (antibody, name in Kabat numbering, V domains shown)
VH: B1 VH
VL: B1 VL with V32S, S61V
notes: one-arm IgG as m2
B25: GLS3000 S56W (antibody, name in Kabat numbering, V domains shown)
VH: B1 VH
VL: B1 VL with V32S, S61W
notes: one-arm IgG as m2
B26: GLS3000 S56Y (antibody, name in Kabat numbering, V domains shown)
VH: B1 VH
VL: B1 VL with V32S, S61Y
notes: one-arm IgG as m2
B27: GLS3000 T31D (antibody, name in Kabat numbering, V domains shown)
VH: B1 VH
VL: B1 VL with V32S, T36D
notes: one-arm IgG as m2
B28: GLS3000 T31E (antibody, name in Kabat numbering, V domains shown)
VH: B1 VH
VL: B1 VL with V32S, T36E
notes: one-arm IgG as m2
B29: GLS3000 T31I (antibody, name in Kabat numbering, V domains shown)
VH: B1 VH
VL: B1 VL with V32S, T36I
notes: one-arm IgG as m2
B30: GLS3000 T31K (antibody, name in Kabat numbering, V domains shown)
VH: B1 VH
VL: B1 VL with V32S, T36K
notes: one-arm IgG as m2
B31: GLS3000 T31N (antibody, name in Kabat numbering, V domains shown)
VH: B1 VH
VL: B1 VL with V32S, T36N
notes: one-arm IgG as m2
B32: GLS3000 T31P (antibody, name in Kabat numbering, V domains shown)
VH: B1 VH
VL: B1 VL with V32S, T36P
notes: one-arm IgG as m2
B33: GLS3000 T92A (antibody, name in Kabat numbering, V domains shown)
VH: B1 VH
VL: B1 VL with V32S, T97A
notes: one-arm IgG as m2
B34: GLS3000 T92D (antibody, name in Kabat numbering, V domains shown)
VH: B1 VH
VL: B1 VL with V32S, T97D
notes: one-arm IgG as m2
B35: GLS3000 T92E (antibody, name in Kabat numbering, V domains shown)
VH: B1 VH
VL: B1 VL with V32S, T97E
notes: one-arm IgG as m2
B36: GLS3000 T92I (antibody, name in Kabat numbering, V domains shown)
VH: B1 VH
VL: B1 VL with V32S, T97I
notes: one-arm IgG as m2
B37: GLS3000 T92L (antibody, name in Kabat numbering, V domains shown)
VH: B1 VH
VL: B1 VL with V32S, T97L
notes: one-arm IgG as m2
B38: GLS3000 T92P (antibody, name in Kabat numbering, V domains shown)
VH: B1 VH
VL: B1 VL with V32S, T97P
notes: one-arm IgG as m2
B39: GLS3000 T92S (antibody, name in Kabat numbering, V domains shown)
VH: B1 VH
VL: B1 VL with V32S, T97S
notes: one-arm IgG as m2
B40: GLS3000 T92Y (antibody, name in Kabat numbering, V domains shown)
VH: B1 VH
VL: B1 VL with V32S, T97Y
notes: one-arm IgG as m2
B41: GLS3000 T97P (antibody, name in Kabat numbering, V domains shown)
VH: B1 VH
VL: B1 VL with V32S, T102P
notes: one-arm IgG as m2
B42: GLS3000 V27cD (antibody, name in Kabat numbering, V domains shown)
VH: B1 VH
VL: B1 VL with V30D, V32S
notes: one-arm IgG as m2
B43: GLS3000 V27cE (antibody, name in Kabat numbering, V domains shown)
VH: B1 VH
VL: B1 VL with V30E, V32S
notes: one-arm IgG as m2
B44: GLS3000 V27cI (antibody, name in Kabat numbering, V domains shown)
VH: B1 VH
VL: B1 VL with V30I, V32S
notes: one-arm IgG as m2
B45: GLS3000 V27cL (antibody, name in Kabat numbering, V domains shown)
VH: B1 VH
VL: B1 VL with V30L, V32S
notes: one-arm IgG as m2
B46: GLS3000 V27cP (antibody, name in Kabat numbering, V domains shown)
VH: B1 VH
VL: B1 VL with V30P, V32S
notes: one-arm IgG as m2

Each binder was assayed against T1, CD3 epsilon homodimer protein (UniProt P07766 23-126) (assay: SPR Biacore T200, CD3e homodimer on chip, vs unaltered GLS3000 antibody).
T1 construct: also called CD3 (CD3 epsilon)
T1 sequence (P07766 23-126): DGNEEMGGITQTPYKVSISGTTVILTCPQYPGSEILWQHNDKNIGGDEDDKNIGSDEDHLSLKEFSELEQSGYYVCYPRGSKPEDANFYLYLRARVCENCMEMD
Description: An appropriate amount of CD3 epsilon homodimer protein was immobilized onto Sensor chip CM4 (GE Healthcare Japan Corp.) by the amine coupling method. Then, the antibody having an appropriate concentration was injected thereto as an analyte and allowed to interact with the CD3 epsilon homodimer protein on the sensor chip. Then, the sensor chip was regenerated by the injection of 10 mmol/L glycine-HCl (pH 1.5). The assay was conducted at 25 degrees C., and HBS-EP+(GE Healthcare Japan Corp.) was used as a running buffer. […] Each parameter was calculated using Biacore T200 Evaluation Software (GE Healthcare Japan Corp.).

Binder | ratio of amounts bound (Z=Y/X)
B1 | 1.08
B2 | 1.55
B3 | 1.2
B4 | 0.93
B5 | 0.63
B6 | 0.33
B7 | 1.05
B8 | 1.12
B9 | 1.16
B10 | 0.77
B11 | 0.71
B12 | 1.32
B13 | 0.92
B14 | 1.05
B15 | 0.99
B16 | 1.46
B17 | 1.02
B18 | 1.05
B19 | 0.92
B20 | 0.95
B21 | 1.04
B22 | 1.36
B23 | 0.97

Binder | ratio of amounts bound (Z=Y/X)
B24 | 0.95
B25 | 1.38
B26 | 1.46
B27 | 0.23
B28 | 0.49
B29 | 0.97
B30 | 1.04
B31 | 0.32
B32 | 0.31
B33 | 0.63
B34 | 0.18
B35 | 0.17
B36 | 0.34
B37 | 0.42
B38 | 0.26
B39 | 0.96
B40 | 0.33
B41 | 0.31
B42 | 0.32
B43 | 0.61
B44 | 0.96
B45 | 0.84
B46 | 0.3
